This experiment concerns the target T1, HLA-A*2601 (human).
T1 construct: purified HLA molecule
Put plainly: inhibition of 125I-labelled probe peptide binding to purified HLA, gel filtration; standard peptide. On the technique in general: Size exclusion chromatography separates by hydrodynamic size, large species first.

What is called IC50 is the concentration that gives 50% inhibition. Regarding ETFGFEIQSY [standard peptide ETFGFEIQSY], the IC50 is 1 nM.

The values above are taken from patent publication US20070014810A1 (published 2007).
